± gives the standard error. This sample holds only a part of the variants without activity.
B1: glmS ribozyme (parent)
chain: AUAAAAGCGCCAGAACUACAGAAAUGUAGUUGACGAGGAGGAGGUUUAUCGAAUUUUCGGCGGAUGCCUCCAAA

Legend:
Conditions in all cases: with glucosamine-6-phosphate
glucosamine-6-phosphate [1] = variants of: B1; test: self-cleavage kobs at 160 uM GlcN6P; higher = faster cleavage; RNA array
In short: (§1)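 The measurements used barcoded ribozyme variants on sequenced MiSeq chips, transcribed in situ by E. coli RNA polymerase and tracked at 37 °C with a hybridised Cy3 probe. Glucosamine-6-phosphate, 40 μM to 10 mM in HEPES/KCl/Mg(OAc)2 buffer, was flowed in while tiles were imaged over ~14 h. Baseline-normalised signals, also normalised to non-cleaving reference variants, gave per-tile medians that were fit to one- or two-exponential decays for kobs. kcat and KM resulted from weighted Michaelis–Menten fits across concentrations.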

glucosamine-6-phosphate [2] = variants of: B1; test: self-cleavage kobs at 2500 uM GlcN6P; higher = faster cleavage; RNA array
In short: as §1

glucosamine-6-phosphate [3] = variants of: B1; test: self-cleavage kobs at 40 uM GlcN6P; higher = faster cleavage; RNA array
In short: as §1

glucosamine-6-phosphate [4] = variants of: B1; test: self-cleavage kobs at 640 uM GlcN6P; higher = faster cleavage; RNA array
In short: as §1

glucosamine-6-phosphate [5] = variants of: B1; test: self-cleavage kobs at 10000 uM GlcN6P; higher = faster cleavage; RNA array
In short: as §1

Variant	self-cleavage kobs at 160 uM GlcN6P (glucosamine-6-phosphate [1]) [s⁻¹]	self-cleavage kobs at 2500 uM GlcN6P (glucosamine-6-phosphate [2]) [s⁻¹]	self-cleavage kobs at 40 uM GlcN6P (glucosamine-6-phosphate [3]) [s⁻¹]	self-cleavage kobs at 640 uM GlcN6P (glucosamine-6-phosphate [4]) [s⁻¹]	self-cleavage kobs at 10000 uM GlcN6P (glucosamine-6-phosphate [5]) [s⁻¹]
A6C A14C G44U U45C	< 1e-05	< 1e-05	–	–	–
A6U G9A U65G C70A	–	–	< 1e-05	–	–
A39G C71G	0.000373 ± 6.9e-05	0.00189 ± 0.00037	0.000215 ± 2.7e-05	0.000657 ± 8.3e-05	0.00538 ± 0.0012
A6U A12C A36C G38C C71U	< 1e-05	< 1e-05	–	< 1e-05	–
A33U G63U	< 1e-05	< 1e-05	–	< 1e-05	< 1e-05
A6G U30G G35U U45C G59U	–	–	< 1e-05	–	< 1e-05
G13C C61U	< 1e-05	< 1e-05	< 1e-05	< 1e-05	–
G35A U46G	< 1e-05	< 1e-05	–	< 1e-05	–
C34U U56C G62U C71A	< 1e-05	< 1e-05	–	–	–
G7C C8G U30C	< 1e-05	–	–	< 1e-05	–
C58G A64G C70G	–	–	< 1e-05	–	–
C16U A52G C68U	6.54e-05 ± 2.2e-05	0.000422 ± 0.00016	–	0.000491 ± 0.00012	–
G38C A48G G60U	< 1e-05	< 1e-05	–	< 1e-05	–
C58U C68A C71G	8.62e-05 ± 2.6e-05	–	–	4.72e-05 ± 2.2e-05	–
G32C G62A	< 1e-05	< 1e-05	< 1e-05	< 1e-05	–
C34A C61A	< 1e-05	< 1e-05	–	< 1e-05	–
G13C A42G G51C U56C C67A	< 1e-05	< 1e-05	–	–	–
G7C C70G	< 1e-05	< 1e-05	–	< 1e-05	–
A12U U45A U49G C50U G63U U69C	–	< 1e-05	< 1e-05	< 1e-05	< 1e-05
A42U A53G A64C	< 1e-05	–	–	< 1e-05	–
G40U A42G G51C A52G C70G	–	< 1e-05	< 1e-05	–	< 1e-05
G32A A52U G63C	< 1e-05	< 1e-05	–	< 1e-05	–
C50U C67G	0.000148 ± 6.3e-05	2.44e-05 ± 1.1e-05	–	2.88e-05 ± 1.2e-05	–
G9A A64C	< 1e-05	< 1e-05	< 1e-05	< 1e-05	–
A14G U57A	4.7e-05 ± 1.1e-05	0.000418 ± 4.7e-05	–	0.000139 ± 2.9e-05	–
A36C G44C	< 1e-05	< 1e-05	–	–	< 1e-05

Variant	self-cleavage kobs at 160 uM GlcN6P (glucosamine-6-phosphate [1]) [s⁻¹]	self-cleavage kobs at 2500 uM GlcN6P (glucosamine-6-phosphate [2]) [s⁻¹]	self-cleavage kobs at 40 uM GlcN6P (glucosamine-6-phosphate [3]) [s⁻¹]	self-cleavage kobs at 640 uM GlcN6P (glucosamine-6-phosphate [4]) [s⁻¹]	self-cleavage kobs at 10000 uM GlcN6P (glucosamine-6-phosphate [5]) [s⁻¹]
A36U C50U	< 1e-05	< 1e-05	–	–	–
G38A G59A	< 1e-05	–	–	–	< 1e-05
C11U A14U A64C	< 1e-05	–	–	–	–
G7A G37A A39G G40U U49A G59A	< 1e-05	< 1e-05	–	–	–
A36G C50A	< 1e-05	–	–	< 1e-05	–
A6G G38C U49A	< 1e-05	–	–	< 1e-05	–
C8G U57G	< 1e-05	< 1e-05	–	< 1e-05	–
A6G G35C G59A	< 1e-05	–	–	< 1e-05	–
G13U C16G A64U C67G	–	–	< 1e-05	–	< 1e-05
C50A G66A C70G	5.52e-05 ± 2.4e-05	0.000169 ± 4.8e-05	–	0.000243 ± 6.1e-05	–
U30A C50A	< 1e-05	–	–	–	–
G35U A36U G37U G66U	< 1e-05	–	–	–	–
C8U G41C	–	–	< 1e-05	< 1e-05	< 1e-05
A12U U69C	0.000492 ± 0.00017	0.00211 ± 0.00066	–	0.00151 ± 0.00069	–
G9U G13U G32A U47A G62A	< 1e-05	–	–	–	–
A15U A33U C50U G51U G62U G63A C70U	9.07e-05 ± 2.6e-05	7.13e-05 ± 2.3e-05	–	0.000118 ± 3.6e-05	–
G37C A39G	–	–	< 1e-05	–	3.63e-05 ± 7.3e-06
C11U A14G G40U A42C	–	–	< 1e-05	–	< 1e-05
C10A C34U U55G	< 1e-05	< 1e-05	–	–	–
A12C A33U A53U C68A A73C	–	–	< 1e-05	–	–
C10A A52U U56G	< 1e-05	< 1e-05	< 1e-05	< 1e-05	< 1e-05
C11A G41U C58U	< 1e-05	–	–	< 1e-05	–
C16G A39C U45C A48C	< 1e-05	–	–	< 1e-05	–
C10U U30C G43U G51U U55C U69C	< 1e-05	< 1e-05	–	< 1e-05	< 1e-05
A33G A52G U56A	< 1e-05	–	–	–	< 1e-05
G29U G38C A39U C50A	< 1e-05	–	–	< 1e-05	–

Variant	self-cleavage kobs at 160 uM GlcN6P (glucosamine-6-phosphate [1]) [s⁻¹]	self-cleavage kobs at 2500 uM GlcN6P (glucosamine-6-phosphate [2]) [s⁻¹]	self-cleavage kobs at 40 uM GlcN6P (glucosamine-6-phosphate [3]) [s⁻¹]	self-cleavage kobs at 640 uM GlcN6P (glucosamine-6-phosphate [4]) [s⁻¹]	self-cleavage kobs at 10000 uM GlcN6P (glucosamine-6-phosphate [5]) [s⁻¹]
A6C U30G	< 1e-05	–	–	–	–
A36C G37A G59C C71U	–	< 1e-05	< 1e-05	–	< 1e-05
C8A G35C C61G	< 1e-05	< 1e-05	–	< 1e-05	–
G51C G62A	–	< 1e-05	< 1e-05	< 1e-05	< 1e-05
U31A A42U U45A G62U	< 1e-05	< 1e-05	–	–	–
C8A A33U G44A A64U	–	–	< 1e-05	< 1e-05	–
A33C G62A G63A	< 1e-05	< 1e-05	–	–	–
G7C C10A	–	< 1e-05	< 1e-05	–	< 1e-05
C10A U30A G35U G43U	< 1e-05	–	–	–	–
G38U C58U C68A	7.38e-05 ± 3.4e-05	6.21e-05 ± 3.1e-05	–	0.00022 ± 8.3e-05	–
G40C G43U G66U	< 1e-05	< 1e-05	–	< 1e-05	–
G13C A33C G41U U56C	< 1e-05	< 1e-05	–	–	–
G35A U56G A64G	< 1e-05	< 1e-05	–	–	< 1e-05
A33U U45G	< 1e-05	–	–	–	3.8e-05 ± 7.6e-06
U46G G51C	–	–	< 1e-05	< 1e-05	< 1e-05
G29C G41U A48G U49C G60C	–	–	< 1e-05	–	< 1e-05
G9U A33C	< 1e-05	< 1e-05	–	< 1e-05	< 1e-05
A6U C34U C58U	–	–	< 1e-05	–	–
G35U C58A C71G	< 1e-05	–	–	< 1e-05	–
G29C G37C G41C	< 1e-05	< 1e-05	–	–	–
A36C G63U	–	–	< 1e-05	< 1e-05	–
C11U A39U U49G	< 1e-05	< 1e-05	–	< 1e-05	–
A15G A36C C68G	–	–	6.45e-05 ± 2.9e-05	–	–
A6U A42C	< 1e-05	< 1e-05	–	–	< 1e-05
C10A C50G	0.000235 ± 5.6e-05	0.000174 ± 3.5e-05	7.92e-05 ± 1.7e-05	0.000189 ± 4.1e-05	6.81e-05 ± 1.2e-05
A36G U57G	< 1e-05	< 1e-05	–	< 1e-05	< 1e-05

Variant	self-cleavage kobs at 160 uM GlcN6P (glucosamine-6-phosphate [1]) [s⁻¹]	self-cleavage kobs at 2500 uM GlcN6P (glucosamine-6-phosphate [2]) [s⁻¹]	self-cleavage kobs at 40 uM GlcN6P (glucosamine-6-phosphate [3]) [s⁻¹]	self-cleavage kobs at 640 uM GlcN6P (glucosamine-6-phosphate [4]) [s⁻¹]	self-cleavage kobs at 10000 uM GlcN6P (glucosamine-6-phosphate [5]) [s⁻¹]
G62A G63U C67U	< 1e-05	–	–	< 1e-05	–
U30C A36C C50G G59C	0.000229 ± 9.7e-05	–	–	–	–
A39U G60U	< 1e-05	–	< 1e-05	< 1e-05	< 1e-05
G37C G60U C70U	< 1e-05	–	–	–	–
G7C C61U	< 1e-05	< 1e-05	–	< 1e-05	–
U30A G41C U49A	< 1e-05	< 1e-05	–	< 1e-05	< 1e-05
C10U G63U A64U	–	–	< 1e-05	–	–
C11G C67U	< 1e-05	< 1e-05	–	< 1e-05	–
U30A C34U	< 1e-05	< 1e-05	< 1e-05	< 1e-05	–
A14C C67U C70U	–	–	< 1e-05	–	6.08e-05 ± 1.4e-05
C10G G43U C50A	< 1e-05	< 1e-05	–	–	–
G37A A48G A52G G62A	< 1e-05	–	–	–	–
C8G C16A G35U	< 1e-05	< 1e-05	–	–	–
A42U U47A C70G	< 1e-05	–	–	< 1e-05	–
A12G G40U A53G C67U	< 1e-05	–	–	< 1e-05	–
C50G A52G C67U	0.000143 ± 5.1e-05	7.71e-05 ± 2.8e-05	–	0.000875 ± 0.00027	–
C8A G32A G37A	–	–	< 1e-05	–	–
C10U G44A U57C G62A	< 1e-05	–	–	< 1e-05	–
C16A A39U C58A U65A	< 1e-05	< 1e-05	–	< 1e-05	–
A12U C61A U69G	< 1e-05	–	–	–	–
G7U G13U A15C	< 1e-05	< 1e-05	–	< 1e-05	–
G41A C67U	< 1e-05	< 1e-05	–	< 1e-05	–
G37U G43C U65C	–	–	< 1e-05	< 1e-05	< 1e-05

— the supplement of paper PMC7125110
